{
  "source": "paper PMC4277816",
  "about": "(Chemical communications (Cambridge, England), 2014)",
  "experiment": "serum stability of 64Cu-labelled cFlFlF peptide–chelate conjugates",
  "format": "in vitro ADME",
  "conditions": "compared with the 64Cu–CB-TE1A1P peptide, result in words (Fig. S2b, ESI)",
  "note": "Square brackets hold non-standard residues; d marks the D form. Peptide text beside a SMILES is read from it. * marks the point of attachment. X2 = O=C(O)C(CCCCN*)N1CCCN2CCN(CCCN(CP(=O)(O)O)CC2)CC1; PEG4 = NCCOCCOCCOCCOCCC(=O)O; X1 = O=C(/C=C/c1ccccc1)*",
  "data": [
    {"smiles": "CC(C)C[C@@H](NC(=O)[C@H](Cc1ccccc1)NC(=O)[C@@H](CC(C)C)NC(=O)[C@H](Cc1ccccc1)NC(=O)/C=C/c1ccccc1)C(=O)N[C@@H](Cc1ccccc1)C(=O)NCCOCCOCCOCCOCCC(=O)NCCCCC(C(=O)O)N1CCCN2CCN(CCCN(CP(=O)(O)O)CC2)CC1", "note": "(stereo partly drawn) [64Cu–CB-TE1K1P peptide, metal not drawn] (X1-F[dL]F[dL]F[PEG4]-X2; N-terminus assumed)", "values": [
      {"measurement": "serum stability", "value": "better serum stability"}
    ]}
  ]
}
